Data as given in PMC8583203, “DisA Restrains the Processing and Cleavage of Reversed Replication Forks by the RuvAB-RecU Resolvasome”.

Columns and labels:
DisA [1] = target: T1, DisA (Bacillus subtilis, UniProt P37573 1-360); assay: EMSA; details: 10 mM Mg2+; 0.2% glutaraldehyde; 50 mM Tris-HCl pH 7.5, 50 mM NaCl, 1 mM DTT, 0.05 mg/mL BSA, 5% glycerol, 1 or 10 mM MgCl2 or 5 mM EDTA, 15 min 37 C, 0.2 nM DNA; 0.2% glutaraldehyde before 6% …
T1 sequence: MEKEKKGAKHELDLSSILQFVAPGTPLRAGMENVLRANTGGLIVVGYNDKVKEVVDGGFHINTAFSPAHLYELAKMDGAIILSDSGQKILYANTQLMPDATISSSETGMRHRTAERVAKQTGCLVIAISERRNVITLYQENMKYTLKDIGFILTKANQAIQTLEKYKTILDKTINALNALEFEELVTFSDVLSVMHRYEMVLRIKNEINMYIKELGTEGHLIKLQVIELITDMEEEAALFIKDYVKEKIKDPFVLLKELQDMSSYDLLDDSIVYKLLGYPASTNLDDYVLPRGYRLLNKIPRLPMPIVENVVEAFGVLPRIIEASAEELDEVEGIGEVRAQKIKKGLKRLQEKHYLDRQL

DisA [2] = target: T1, DisA; assay: EMSA; 10 mM Mg2+; 0.2% glutaraldehyde; 50 mM Tris-HCl pH 7.5, 50 mM NaCl, 1 mM DTT, 0.05 mg/mL BSA, 5% glycerol, 1 or 10 mM MgCl2 or 5 mM EDTA, 15 min 37 C, 0.2 nM DNA; 0.2% glutaraldehyde before 6%; details: protein: recombinant, chain copies: 8, label: 32P (5' by gamma-32P)
RecU = target: T2, RecU (Bacillus subtilis, UniProt P39792 1-206); assay: EMSA; 1 mM Mg2+; 50 mM Tris-HCl pH 7.5, 50 mM NaCl, 1 mM DTT, 0.05 mg/mL BSA, 5% glycerol, 1 or 10 mM MgCl2 or 5 mM EDTA, 15 min 37 C, 0.2 nM DNA; 0.2% glutaraldehyde before 6%; details: protein: recombinant; chain copies: 2; label: 32P (5' by gamma-32P); four-way junction
T2 sequence: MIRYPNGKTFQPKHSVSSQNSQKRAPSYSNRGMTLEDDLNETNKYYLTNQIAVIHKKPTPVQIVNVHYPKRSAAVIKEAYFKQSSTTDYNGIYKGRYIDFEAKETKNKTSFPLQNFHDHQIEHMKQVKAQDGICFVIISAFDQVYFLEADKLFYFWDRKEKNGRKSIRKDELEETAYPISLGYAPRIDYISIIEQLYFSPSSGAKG

RuvA = target: T3, RuvA (Bacillus subtilis, UniProt O05392 1-201); assay: as above; details: protein: recombinant; chain copies: 8; label: 32P (5' by gamma-32P); four-way junction
T3 sequence: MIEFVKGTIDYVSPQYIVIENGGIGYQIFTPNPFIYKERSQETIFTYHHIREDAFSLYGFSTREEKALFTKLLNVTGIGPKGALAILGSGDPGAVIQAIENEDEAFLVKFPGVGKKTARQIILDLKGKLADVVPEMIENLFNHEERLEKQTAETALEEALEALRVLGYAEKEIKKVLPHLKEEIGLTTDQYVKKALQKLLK

DisA [3] = target: T1, DisA; assay: EMSA; 10 mM Mg2+; 500 uM ATP; 50 mM Tris-HCl pH 7.5, 50 mM NaCl, 1 mM DTT, 0.05 mg/mL BSA, 5% glycerol, 1 or 10 mM MgCl2 or 5 mM EDTA, 15 min 37 C, 0.2 nM DNA; 0.2% glutaraldehyde before 6%; details: protein: recombinant; chain copies: 8; label: 32P (5' by gamma-32P); four-way junction
DisA;RuvA = target: T4, DisA;RuvA (Bacillus subtilis;Bacillus subtilis, UniProt P37573;O05392 1-360;1-201, |); assay: EMSA; 1 mM Mg2+; new R+A complex; 50 mM Tris-HCl pH 7.5, 50 mM NaCl, 1 mM DTT, 0.05 mg/mL BSA, 5% glycerol, 1 or 10 mM MgCl2 or 5 mM EDTA, 15 min 37 C, 0.2 nM DNA; 0.2% glutaraldehyde before 6%; details: protein: recombinant;recombinant; tags: ;; chain copies: 8;8; label: 32P (5' by gamma-32P); four-way junction
T4 sequence 1: T1 sequence
T4 sequence 2: T3 sequence

RuvA;RuvB = target: T5, RuvA;RuvB (Bacillus subtilis;Bacillus subtilis, UniProt O05392;O32055 1-201;1-334, |); assay: DNase I footprinting; 10 mM Mg2+; 5 mM ATPgS; ~40-nt footprint; 50 mM Tris-HCl pH 7.5, 50 mM NaCl, 1 mM DTT, 0.05 mg/mL BSA, 5% glycerol, 1 or 10 mM MgCl2 or 5 mM EDTA, 15 min 37 C, 0.2 nM DNA; 0.2% glutaraldehyde before 6%; details: protein: recombinant;native; tags: ;; chain copies: 8;12; label: 32P (5' by gamma-32P); four-way junction
T5 sequence 1: T3 sequence
T5 sequence 2: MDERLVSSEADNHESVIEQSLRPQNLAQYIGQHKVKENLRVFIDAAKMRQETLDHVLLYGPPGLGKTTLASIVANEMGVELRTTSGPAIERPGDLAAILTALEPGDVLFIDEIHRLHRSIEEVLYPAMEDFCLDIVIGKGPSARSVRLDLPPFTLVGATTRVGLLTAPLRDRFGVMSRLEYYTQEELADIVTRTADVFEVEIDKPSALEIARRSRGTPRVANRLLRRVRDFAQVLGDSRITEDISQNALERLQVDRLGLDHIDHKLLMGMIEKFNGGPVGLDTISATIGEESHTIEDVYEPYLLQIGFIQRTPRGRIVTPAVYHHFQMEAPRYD

DisA;RuvA;RuvB = target: T6, DisA;RuvA;RuvB (Bacillus subtilis;Bacillus …, UniProt P37573;O05392;O32055 1-360;1-201;1-334, ||); assay: DNase I footprinting; 10 mM Mg2+; 5 mM ATPgS; either order of addition; 50 mM Tris-HCl pH 7.5, 50 mM NaCl, 1 mM DTT, 0.05 mg/mL BSA, 5% glycerol, 1 or 10 mM MgCl2 or 5 mM EDTA, 15 min 37 C, 0.2 nM DNA; 0.2% glutaraldehyde before 6%; details: protein: recombinant;recombinant;native; tags: ;;; label: 32P (5' by gamma-32P); four-way junction
T6 sequence 1: T1 sequence
T6 sequence 2: T3 sequence
T6 sequence 3: T5 sequence 2

DisA;RecU = target: T7, DisA;RecU (Bacillus subtilis;Bacillus subtilis, UniProt P37573;P39792 1-360;1-206, |); assay: DNase I footprinting; preformed at 1 mM Mg2+, then 10 mM Mg2+; coexistence judged likely; 50 mM Tris-HCl pH 7.5, 50 mM NaCl, 1 mM DTT, 0.05 mg/mL BSA, 5% glycerol, 1 or 10 mM MgCl2 or 5 mM EDTA, 15 min 37 C, 0.2 nM DNA; 0.2% glutaraldehyde before 6%; details: protein: recombinant;recombinant; tags: ;; chain copies: 8;2; label: 32P (5' by gamma-32P); four-way junction
T7 sequence 1: T1 sequence
T7 sequence 2: T2 sequence

ssDNA (oligonucleotide not stated)
Kd (DisA [1]): 3.3 nM

B1: flayed DNA (170/173) (structured_DNA)
DNA 1: AGACGCTGCCGAATTCTGGCTTGGATCTGATGCTGTCTAGAGGCCTCCACTATGAAATCG
DNA 2: AGCTCATAGATCGATAGTCTCTAGACAGCATCAGATCCAAGCCAGAATTCGGCAGCGTCT
Kd (DisA [2]; fork 1:2, unpaired 3' end of 170 and 5' end of 173): 3.2 ± 0.2 nM

B2: dsDNA (80-bp) (dsDNA)
DNA 1: CGCAGCGACAGGAACCTCGAGGAATTCAACCACCGCTCAACTCAACTGCAGTCTGACTCGAGGTTCCTGTCGCTTGCG
DNA 2: CGCAAGCGACAGGAACCTCGAGTCTAGACTGCAGTTGAGTTGAGCGGTGGTTGAATTCCTCGAGTTCCTGTCGCTTGCG
Kd (DisA [2]; duplex, printed strands not exactly complementary (small deletions/insertion)): 2.6 ± 0.3 nM

B3: HJ-J3 DNA (fixed Holliday junction) (structured_DNA)
DNA 1: CGCAAGCGACAGGAACCTCGAGAAGCTTCCGGTAGCAGCCTGAGCGGTGGTTGAATTCCTCGAGGTTCCTGTCGCTTGCG
DNA 2: B2 DNA 1
DNA 3: CGCAAGCGACAGGAACCTCGAGTCTAGACTGCAGTTGAGTCCTTGCTAGGACGGATCCCTCAGGTTCCTGTCGCTTGCG
DNA 4: CGCAAGCGACAGGAACCTCGAGGGATCCGTCCTAGCAAGGGGCTGCTACCGGAAGCTTCTCGAGGTTCCTGTCGCTTGCG
Kd (RecU): 0.6 ± 0.2 nM | Kd (RuvA): 10 ± 2 nM | Kd (DisA [3]): 5.5 ± 0.3 nM | binding result (DisA;RuvA): binds | Kd (DisA [2]; four-way junction): 3 ± 0.5 nM | binding result (RuvA;RuvB): binds | binding result (DisA;RuvA;RuvB): binds | binding result (DisA;RecU): binds
